B1: APRIL (a proliferating ligand), IgG2a Fc conjugated binder (Fc fusion)
chain: SVLHLVPINATSKDDSDVTEVMWQPALRRGRGLQAQGYGVRIQDAGVYLLYSQVLFQDVTFTMGQVVSREGQGRQETLFRCIRSMPSHPDRAYNSCYSAGVFHLHQGDILSVIIPRARAKLNLSPHGTFLGFVKL
B2: soluble BCMA (B-cell maturation antigen) (receptor)
chain: MLQMAGQCSQNEYFDSLLHACIPCQLRCSSNTPPLTCQRYCNASVTNSVKGTNA

Experiment in all cases: SPR
(SPR reads the build-up and loss of mass on a sensor chip optically.)

The target in experiment [1] is B2.
Experiment [2] has as its target B2.
Another experiment deals with bb2121 (C11D5.3).

Our source for the Kd and koff values is paper PMC10314698 (2023).

As a reminder, the Kd is the equilibrium constant for the complex coming apart. The low end stands for a tighter complex, the high end for a looser complex. As a reminder, the koff is the first-order rate constant of dissociation. With B1, in experiment [1], binding was put at a Kd of 3.7 nM. In experiment [2], this molecule yielded a dissociation rate constant (koff) of 0.00393 s⁻¹.

On to B2, for which, in the experiment with bb2121 (C11D5.3), the Kd turned out to be 0.328 nM and the dissociation rate constant (koff) was 0.00155 s⁻¹.
